Data as given in patent US20250011363A1, “OPTIMIZED SHORTENED PEPTIDE THAT BINDS TO ACETYLCHOLINE RECEPTOR, AND USE THEREOF” (SKINMED CO., LTD., priority 2021, published 2025).

Target: acetylcholine receptor
Assay: SPR, receptor immobilised on chip, peptide at 10 uM

Binder	Binding affinity (RU)
RASVKR [6mer-2-925]	23
KAKHRR [6mer-2-963]	37
KFKARK [6mer-2-958]	28
RPKAKK [6mer-2-921]	22
KKCERK [6mer-2-945]	42
KKCNKK [6mer-2-935]	22
KTNWRK [6mer-2-947]	41
KATHKR [6mer-2-969]	33
RDTHRR [6mer-2-957]	40
RYSMKR [6mer-2-933]	34
KNTKKR [6mer-2-961]	21
RTSNKK [6mer-2-967]	35
KEMFRK [6mer-2-971]	29
RIEHKR [6mer-2-938]	40
RASHRR [6mer-2-937]	35
KKCARR [6mer-2-939]	22

Binder	Binding affinity (RU)
KCTIRK [6mer-2-954]	32
KFCIRR [6mer-2-928]	28
RCCAKK [6mer-2-923]	33
RTNARK [6mer-2-959]	35
KPPAKK [6mer-2-936]	21
KPWFKR [6mer-2-965]	36
KDDVRR [6mer-2-970]	27
RTWIKR [6mer-2-930]	37
KYNKRR [6mer-2-950]	26
RYCFKR [6mer-2-931]	29
RFDDRR [6mer-2-974]	38
KPCEKK [6mer-2-946]	21
KCEDRK [6mer-2-964]	41
RADEKK [6mer-2-951]	42
RHWEKK [6mer-2-968]	39

The remaining lines, values ahead:

Binding affinity (RU)	Binder
41	KIDHRR [6mer-2-943]
39	RPNARR [6mer-2-949]
38	KAMFRR [6mer-2-972]
39	RFNPRK [6mer-2-927]
41	KCPIKK [6mer-2-973]
35	RIPWRR [6mer-2-932]
31	RPTVKR [6mer-2-926]
35	KPEDKK [6mer-2-944]
28	RPPFRR [6mer-2-948]
26	KYKDRR [6mer-2-934]
28	KFCWRR [6mer-2-956]
29	RMPERR [6mer-2-955]
26	KNHMRK [6mer-2-929]
24	KYWGRR [6mer-2-952]
41	KEDAKR [6mer-2-966]
33	RDEDKR [6mer-2-941]
28	RFDHKK [6mer-2-924]
30	KKSNRK [6mer-2-962]
25	KESVKK [6mer-2-953]
22	KTDKRK [6mer-2-942]
26	RMTIKK [6mer-2-920]
41	RNENKK [6mer-2-940]
29	RDCVKR [6mer-2-960]
38	KKTMKK [6mer-2-975]
41	KDNVRR [6mer-2-922]
